Common to all, as to type: biochemical, Corynebacterium glutamicum
Series [1] concerns T1, Cg0911.
T1 construct: tag-free (C-terminal intein tag self-cleaved, IMPACT system), expressed in E. coli ER2566
The series can be described thus: phosphate release, malachite green; Hill equation fit. To be noted: 5 mM MgSO4, 100 mM triethanolamine, pH 7.35, 30 °C. The source says: phosphate release, malachite green; Hill equation fit on Cg0911

Series [2] has as its system T1, Cg0911. The series can be described thus: phosphate release from HolP, malachite green; activation. To be noted: activator (also reaction product); 500 μM HolP, 5 mM MgSO4, 1 M triethanolamine, pH 7.35, 30 °C; read-out: Half maximal stimulation.
Substrate in series [3]: N[C@H](COP(=O)(O)O)Cc1c[nH]cn1
The series can be described thus: phosphate release, malachite green; Hill equation fit. To be noted: 5 mM MgSO4, 100 mM triethanolamine, pH 7.35, 30 °C. The source says: phosphate release, malachite green; Hill equation fit on HisN (HisNCg)

The term Km denotes the substrate concentration at which the rate is half of its maximum. Turning to `N[C@H](COP(=O)(O)O)Cc1c[nH]cn1` [L-histidinol-phosphate], the Km with Cg0911 [1] turned out to be 638 ± 70.5 µM.

For the molecule `N[C@H](CO)Cc1c[nH]cn1` [L-histidinol], the EC50 in the series on Cg0911 [2] came to 860 ± 60 µM.

B1: HisN (HisNCg) (Corynebacterium glutamicum ATCC 13032) (protein)
chain: MSKYADDLALALELAELADSITLDRFEASDLEVSSKPDMTPVSDADLATEEALREKIATARPADSILGEEFGGDVEFSGRQWIIDPIDGTKNYVRGVPVWATLIALLDNGKPVAGVISAPALARRWWASEGAGAWRTFNGSSPRKLSVSQVSKLDDASLSFSSLSGWAERDLRDQFVSLTDTTWRLRGYGDFFSYCLVAEGAVDIAAEPEVSLWDLAPLSILVTEAGGKFTSLAGVDGPHGGDAVATNGILHDETLDRLK
notes: tag-free (C-terminal intein tag self-cleaved, IMPACT system, NEB), expressed in E. coli ER2566
A word on the kcat: it is the maximal rate divided by the concentration of active sites. In general, kcat/Km refers to the second-order rate constant that governs catalysis at low substrate concentration. In the case of B1, in series [3], the Km was 23.6 ± 1.4 µM, the kcat came out at 1.04 ± 0.06 s⁻¹ and the kcat/Km turned out to be 44100 M⁻¹ s⁻¹.

The record behind these values is paper PMC5516325, “Sequence-based identification of inositol monophosphatase-like histidinol-phosphate phosphatases (HisN) in Corynebacterium glutamicum, Actinobacteria, and beyond” (BMC Microbiology, 2017).
